“Also recorded” adds a separate entry of the source. No end group written: not given here.

Data on twelve molecules can be found in paper PMC4330371, “Interaction between the RNA-dependent ATPase and poly(A) polymerase subunits of the TRAMP complex is mediated by short peptides and important for snoRNA processing” (Nucleic Acids Research, 2015).

What all share (assay type): cell-based, Saccharomyces cerevisiae
One assay deals with Mtr4. As to the kind of experiment: Yeast two-hybrid interaction with Mtr4. On the set-up: key to Y2H interaction with Mtr4: +: growth on both SC-ADE and SC-HIS supplemented with 10 mM 3-AT; -: a failure to interact. Conditions: for yeast two-hybrid interaction with Mtr4: full-length Mtr4, growth on SC-ADE and SC-HIS; for Y2H interaction with Mtr4: Trf5 fragments, growth on SC-ADE and SC-HIS supplemented with 10 mM 3-AT. The source says:
(§1) The yeast two-hybrid assays used plasmids pOBD2 and pOAD that were previously described ([28]). The yeast two-hybrid plasmids for Mtr4 (pAV745), Mtr4-archless (pAV746) and Trf5–53–199 (pAV744) have been previously described as have the positive controls that contain MEC3 and RAD17 ([29]). Yeast two-hybrid plasmids with Trf5 residues 68–199 (pAV759), 83–199 (pAV760), 98–199 (pAV761), 118–199 (pAV766), 53–184 (pAV762), 53–169 (pAV763), 53–154 (pAV764), 53–139 (pAV767) and 53–124 (pAV768) were generated similarly to pAV744. Briefly, these regions of TRF5 were PCR amplified with primers that contain PvuII and PstI sites, digested with those restriction enzymes and cloned into pOAD. The yeast two-hybrid plasmids with Trf5 residues 98–117 were generated by cloning oligonucleotides for this region into the PvuII and PstI sites of pOAD.
Strain trf4Δ/trf5Δ/pRS416-TRF4 has been previously described (MATa, leu2-Δ0, ura3-Δ0, his3-Δ1, met15-Δ0, trf4Δ::NAT, trf5Δ::KAN; [33]). The TRF5 and trf5-Δ98–117 plasmids were introduced by transformation and selection on media lacking leucine. Transformants were then plated on media containing 5FOA to select for cells that had lost the pRS416-TRF4 plasmid. The rrp44-exo^−, rrp44-endo^− and rrp6Δ::KAN strains are isogenic to this strain and have been previously described ([31]). Yeast two-hybrid strains PJ69–4α and PJ69–4a have been previously described ([28],[34]). They are MATα and MATa, respectively, and in addition are both trp1–901, leu2–3,112, ura3–52, his3–200, gal4Δ, gal80Δ, LYS2::GAL1-HIS3, GAL2-ADE2, met2::GAL7-lacZ.
Yeast two-hybrid assays were carried out as previously described ([29]). Briefly, the MTR4 TRP1 plasmids were transformed into PJ69–4α and the TRF5 LEU2 plasmids were transformed into PJ69–4a. Transformants were crossed to each other and diploids that contain both plasmids were selected on SC-TRP-LEU. These diploids were then serially diluted and spotted on SC-TRP-LEU, SC-ADE and SC-HIS media.

The next assay relates to Mtr4-archless. As to the kind of experiment: Yeast two-hybrid interaction with Mtr4-archless. Conditions: growth on SC-ADE and SC-HIS.
Text: as §1
(§2) Strain trf4Δ/trf5Δ/pRS416-TRF4 has been previously described (MATa, leu2-Δ0, ura3-Δ0, his3-Δ1, met15-Δ0, trf4Δ::NAT, trf5Δ::KAN; [33]). The TRF5 and trf5-Δ98–117 plasmids were introduced by transformation and selection on media lacking leucine. Transformants were then plated on media containing 5FOA to select for cells that had lost the pRS416-TRF4 plasmid. The rrp44-exo^−, rrp44-endo^− and rrp6Δ::KAN strains are isogenic to this strain and have been previously described ([31]). […]

Another assay deals with endogenous Mtr4. Nature of the assay: Co-purification of endogenous Mtr4 with TAP-tagged Trf5. The settings on record: TAP-tagged Trf5 proteins expressed from endogenous promoter, IgG Sepharose, 2 h at 4°C, IP50/IP150 buffer pH 7.5, western blot with anti-Mtr4.
Text: The Trf5-Δ98–117-TAP and Trf5-TAP plasmids are low copy (CEN) plasmids derived from pRS415 ([30]) with the endogenous TRF5 promoter driving expression of Trf5 or Trf5-Δ98–117. The trf5-Δ98–117-TAP plasmid (pAV854) was generated by ligation of three DNA fragments. The first fragment contained the promoter and 5′ end of TRF5 and was generated by PCR with oligonucleotides oAV906 ([…]) and oAV870 ([…]) and digestion with NotI and SpeI. The second fragment contained the 3′ end of TRF5 and was generated by PCR with oligonucleotides oAV871 ([…]) and oAV869 ([…]) and digestion with SpeI and PstI. The third fragment was pAV476 ([31]) digested with NotI and PstI. The TRF5-TAP plasmid (pAV885) was subsequently generated by replacing an XbaI to BstAPI fragment that contained the internal deletion with the corresponding wild-type sequence.
as §2
In general terms: Immunoblotting shows a protein as a band on a membrane.

“Trf5 98–117: yeast two-hybrid construct with Trf5 residues 98–117, conserved 20 amino acid peptide (NNSLEDNQDFIAFSDSSEDE; also: fused to Gal4 activation domain, end not given here)”: the figures for the “yeast two-hybrid interaction with Mtr4” value in the assay on Mtr4 and in the assay with Mtr4 (listed as amino acids 98–117 of Trf5) were “interacts with Mtr4” and “sufficient for interaction with Mtr4; also recorded: indeed interacted with Mtr4”, respectively. Further, the “yeast two-hybrid interaction with Mtr4-archless” value with Mtr4-archless was “interacts both with full-length and archless Mtr4”.

B1: Trf5 fragment 118-199: yeast two-hybrid construct of Trf5 residues 118–199 (protein, UniProt P48561 118-199, looked up, fragment)
chain: TEQIKEDDDERSSFLLTDEHEVSKLTSQQSLNTESACNVEYPWIRNHCHSKQRRIADWLTSEIKDFVHYISPSKNEIKCRNR
modifications: yeast two-hybrid fusion
Regarding B1, the “Y2H interaction with Mtr4” value in the assay on Mtr4 is “-”.

B2: Trf5 fragment 98-199: yeast two-hybrid construct of Trf5 residues 98–199 (protein, UniProt P48561 98-199, looked up, fragment)
chain: NNSLEDNQDFIAFSDSSEDETEQIKEDDDERSSFLLTDEHEVSKLTSQQSLNTESACNVEYPWIRNHCHSKQRRIADWLTSEIKDFVHYISPSKNEIKCRNR
modifications: yeast two-hybrid fusion
For B2, in the assay with Mtr4, the “Y2H interaction with Mtr4” value is “+”.

B3: Trf5 fragment 53-154: yeast two-hybrid construct of Trf5 residues 53–154 (protein, UniProt P48561 53-154, looked up, fragment)
chain: AIDVEDDDTFGNLVLMENDKSDVDIPVIEEVTSSEDEQRAESSKRNNSLEDNQDFIAFSDSSEDETEQIKEDDDERSSFLLTDEHEVSKLTSQQSLNTESAC
modifications: yeast two-hybrid fusion
Regarding B3, the “Y2H interaction with Mtr4” value in the assay on Mtr4 was “+”.

B4: Trf5 fragment 53-184: yeast two-hybrid construct of Trf5 residues 53–184 (protein, UniProt P48561 53-184, looked up, fragment)
chain: AIDVEDDDTFGNLVLMENDKSDVDIPVIEEVTSSEDEQRAESSKRNNSLEDNQDFIAFSDSSEDETEQIKEDDDERSSFLLTDEHEVSKLTSQQSLNTESACNVEYPWIRNHCHSKQRRIADWLTSEIKDFV
modifications: yeast two-hybrid fusion
Regarding B4, the “Y2H interaction with Mtr4” value in the assay on Mtr4 is listed as “+”.

B5: Trf5 fragment 53-199: yeast two-hybrid construct of Trf5 residues 53–199 (protein)
chain: AIDVEDDDTFGNLVLMENDKSDVDIPVIEEVTSSEDEQRAESSKRNNSLEDNQDFIAFSDSSEDETEQIKEDDDERSSFLLTDEHEVSKLTSQQSLNTESACNVEYPWIRNHCHSKQRRIADWLTSEIKDFVHYISPSKNEIKCRNR
modifications: left off: Gal4 activation domain (from the vector pOAD), end not stated, kept
As for B5, in the assay on Mtr4, the “Y2H interaction with Mtr4” value is given as “+”.

B6: Trf5 fragment 53-169: yeast two-hybrid construct of Trf5 residues 53–169 (protein, UniProt P48561 53-169, looked up, fragment)
chain: AIDVEDDDTFGNLVLMENDKSDVDIPVIEEVTSSEDEQRAESSKRNNSLEDNQDFIAFSDSSEDETEQIKEDDDERSSFLLTDEHEVSKLTSQQSLNTESACNVEYPWIRNHCHSKQ
modifications: yeast two-hybrid fusion
For B6, the “Y2H interaction with Mtr4” value in the assay with Mtr4 is “+”.

B7: Trf5 fragment 68-199: yeast two-hybrid construct of Trf5 residues 68–199 (protein, UniProt P48561 68-199, looked up, fragment)
chain: MENDKSDVDIPVIEEVTSSEDEQRAESSKRNNSLEDNQDFIAFSDSSEDETEQIKEDDDERSSFLLTDEHEVSKLTSQQSLNTESACNVEYPWIRNHCHSKQRRIADWLTSEIKDFVHYISPSKNEIKCRNR
modifications: yeast two-hybrid fusion
Consider B7, for which, in the assay on Mtr4, the “Y2H interaction with Mtr4” value is recorded as “+”.

B8: Trf5 fragment 53-139: yeast two-hybrid construct of Trf5 residues 53–139 (protein, UniProt P48561 53-139, looked up, fragment)
chain: AIDVEDDDTFGNLVLMENDKSDVDIPVIEEVTSSEDEQRAESSKRNNSLEDNQDFIAFSDSSEDETEQIKEDDDERSSFLLTDEHEV
modifications: yeast two-hybrid fusion
With B8, the “Y2H interaction with Mtr4” value with Mtr4 is on record as “+”.

B9: Trf5 fragment 83-199: yeast two-hybrid construct of Trf5 residues 83–199 (protein, UniProt P48561 83-199, looked up, fragment)
chain: VTSSEDEQRAESSKRNNSLEDNQDFIAFSDSSEDETEQIKEDDDERSSFLLTDEHEVSKLTSQQSLNTESACNVEYPWIRNHCHSKQRRIADWLTSEIKDFVHYISPSKNEIKCRNR
modifications: yeast two-hybrid fusion
For B9, the “Y2H interaction with Mtr4” value with Mtr4 is recorded as “+”.

B10: Trf5 fragment 53-124: yeast two-hybrid construct of Trf5 residues 53–124 (protein, UniProt P48561 53-124, looked up, fragment)
chain: AIDVEDDDTFGNLVLMENDKSDVDIPVIEEVTSSEDEQRAESSKRNNSLEDNQDFIAFSDSSEDETEQIKED
modifications: yeast two-hybrid fusion
B10: the “Y2H interaction with Mtr4” value in the assay on Mtr4 is on record as “+”.

B11: full-length TAP-tagged Trf5: TAP-tagged full-length Trf5 expressed from the endogenous TRF5 promoter (protein)
chain: MTRLKAKYSPTKGKRKEDKHTKRMRKSSFTRTQKMLEVFNDNRSHFNKYESLAIDVEDDDTFGNLVLMENDKSDVDIPVIEEVTSSEDEQRAESSKRNNSLEDNQDFIAFSDSSEDETEQIKEDDDERSSFLLTDEHEVSKLTSQQSLNTESACNVEYPWIRNHCHSKQRRIADWLTSEIKDFVHYISPSKNEIKCRNRTIDKLRRAVKELWSDADLHVFGSFATDLYLPGSDIDCVVNSRNRDKEDRNYIYELARHLKNKGLAIRMEVIVKTRVPIIKFIEPQSQLHIDVSFERTNGLEAAKLIREWLRDSPGLRELVLIIKQFLHSRRLNNVHTGGLGGFTVICLVYSFLNMHPRIKSNDIDVLDNLGVLLIDFFELYGKNFGYDDVAISISDGYASYIPKSCWRTLEPSRSKFSLAIQDPGDPNNNISRGSFNMKDIKKAFAGAFELLVNKCWELNSATFKDRVGKSILGNVIKYRGQKRDFNDERDLVQNKAIIENERYHKRRTRIVQEDLFINDTEDLPVEEIYKLDEPAKKKQKAKKDKREGEIKKSAIPSPPPDFGVSRSKLKRKVKKTDQGSLLHQNNLSIDDLMGLSENDQESDQDQKGRDTPSGQDEKSPLETKTVDAQTRRDYWLSKGQAL
modifications: left off: TAP, end not stated, kept
notes: TAP-tagged full-length Trf5 expressed from the endogenous TRF5 promoter
Turning to B11, the “co-purification of endogenous Mtr4 (words)” value with endogenous Mtr4 is “results in co-purification of endogenous Mtr4”; in the assay with endogenous Mtr4 (listed as full-length Trf5), “readily detectable”.
